Measured values as given in US20140235820A1, “METHODS AND COMPOSITIONS FOR MODULATING THE Wnt PATHWAY” (Genentech, Inc., priority 2010, published 2014).
Residue numbers refer to the chain shown, from its start.

Columns and labels:
LRP6 E1 = molecular target: T1, LRP6 E1 (Homo sapiens, UniProt O75581); assay: Biolayer interferometry binding to LRP6 E1
T1 construct: construct E1-amino acids A20-D325 of LPR6; made in house; host or cells: Tni insect cells (baculovirus, secreted)
T1 sequence (O75581 20-325): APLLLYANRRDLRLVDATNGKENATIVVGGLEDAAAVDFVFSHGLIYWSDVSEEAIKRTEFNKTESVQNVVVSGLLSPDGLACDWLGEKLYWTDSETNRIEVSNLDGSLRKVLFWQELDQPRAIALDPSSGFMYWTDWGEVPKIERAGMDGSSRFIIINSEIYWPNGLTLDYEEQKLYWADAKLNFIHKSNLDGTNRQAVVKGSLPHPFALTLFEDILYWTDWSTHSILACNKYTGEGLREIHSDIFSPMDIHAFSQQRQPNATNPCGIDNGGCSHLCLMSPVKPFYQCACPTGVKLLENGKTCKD
Experimental: (§1) Binding kinetics were measured by biolayer interferometry using an Octet Red instrument (ForteBio) as previously described (11). Streptavidin (SA) biosensors were loaded with biotinylated hLRP6 in 50 mMTris, pH 8, 300 mM NaCl, 5% (v/v) glycerol, and 0.05% (w/v) Triton X-100. The loaded biosensors were washed in the same buffer before carrying out association and dissociation measurements for the indicated times. The Kd of each interaction was determined using steady state-analysis through the Octet Red software v6.3. Each reported value represents an average of three or more experiments at different concentrations, with a fitted experimental curve for which the square of the correlation coefficient (R^2) is above 0.96.
The interaction of the different Dkks and sclerostin with various domains of LRP6 was measured using a biolayer interferometry assay (11). Purified receptors contained individual β-propeller-EGF-like units (E1, E2, or E4), two β-propellers (E1E2 or E3E4), or four β-propellers (E1E4))—as follows:
Human LRP6: construct E1E4-amino acids A20-Q1253 of LPR6; construct E1E2-amino acids A20-E631 of LPR6; construct E3E4 amino acids E631-Q1253 of LPR6; construct E1-amino acids A20-D325 of LPR6; construct E2-amino acids […]-E631 of LPR6; construct E4-T933-Q1253. The individual LRP6 β-propeller E3 could not be expressed.

[1] = molecular target: T2, LRP6 E1E2 variants with LRP5 BMD substitutions (Homo sapiens, UniProt O75581, R141M); assay: Steady-state affinity for LRP6 E1E2 variants carrying LRP5 BMD substitutions; assay type: binding; details: LRP6 Arg141Met vs wild type LRP6 E1E2
T2 construct: construct E1E2-amino acids A20-E631 of LPR6; made in house; host or cells: insect cells (Tni, baculovirus)
T2 sequence (O75581 20-631 R141M): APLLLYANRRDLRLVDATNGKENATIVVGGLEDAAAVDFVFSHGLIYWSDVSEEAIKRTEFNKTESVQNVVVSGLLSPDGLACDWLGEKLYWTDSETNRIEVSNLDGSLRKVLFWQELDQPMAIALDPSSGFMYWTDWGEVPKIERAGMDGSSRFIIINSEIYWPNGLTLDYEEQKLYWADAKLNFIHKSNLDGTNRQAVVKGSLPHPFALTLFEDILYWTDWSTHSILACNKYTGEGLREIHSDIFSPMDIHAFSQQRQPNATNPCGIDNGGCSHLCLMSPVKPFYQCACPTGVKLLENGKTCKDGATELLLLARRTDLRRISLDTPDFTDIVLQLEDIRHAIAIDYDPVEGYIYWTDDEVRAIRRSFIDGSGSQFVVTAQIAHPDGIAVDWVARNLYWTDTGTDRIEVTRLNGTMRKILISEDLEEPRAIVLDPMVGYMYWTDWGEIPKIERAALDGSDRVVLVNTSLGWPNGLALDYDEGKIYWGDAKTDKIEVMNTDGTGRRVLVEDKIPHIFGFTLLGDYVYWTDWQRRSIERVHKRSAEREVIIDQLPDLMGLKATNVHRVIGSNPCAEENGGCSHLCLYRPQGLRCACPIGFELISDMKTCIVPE
Experimental: (§2) FIG. 13. Introduction of LRP5 BMD substitutions into LRP6 E1E2 lowers affinity for Wnt inhibitors. The five substitutions characterized are indicated on the y-axis. Steady-state affinity measurements were made for Wnt9b, Dkk1, and sclerostin binding to each of the LRP6 variants.
as §1
(§3) Cells transfected with LRP5 variants carrying BMD mutations show reduced binding to sclerostin and are less sensitive to sclerostin inhibition of Wnt10b or Wnt6 signaling (70). To further test the effects of the BMD substitutions, we introduced several of them into LRP6 E1E2, with the results shown in FIG. 13. LRP6 E1E2 Gly158Val could not be expressed in insect cells. […] Importantly, not only is the binding to sclerostin affected (70), but the binding of Dkk1 to its E1 interaction site is also impaired.

[2] = molecular target: T3, LRP6 E1E2 variants with LRP5 BMD substitutions (Homo sapiens, UniProt O75581, N185S); assay: as above; assay type: binding; details: LRP6 Asn185 to Ser vs wild type LRP6 E1E2
T3 construct: construct E1E2-amino acids A20-E631 of LPR6; made in house; host or cells: insect cells (Tni, baculovirus)
T3 sequence (O75581 20-631 N185S): T2 sequence (O75581 20-631 R141M) with M122R, N166S
Experimental: as §2, §1, §3

Row | binding to LRP6 E1 (in words) (LRP6 E1) | loss in affinity for LRP6 E1E2 Arg141Met [1] [fold] | loss in affinity for LRP6 E1E2 Asn185Ser [2] [fold] | Substance
1 | binds | 31 | 59 | sclerostin: Sclerostin protein, Wnt pathway inhibitor, expressed in insect cells (LPNAIGR)
2 | bind with high affinity | 29 | 183 | Dkk1: Dickkopf 1 protein, Wnt pathway inhibitor, expressed in insect cells (NSNAIKN)
